From PMC10760178
pKd: −log10 of the molar value.

Target: Catabolite Repressor Activator protein (Cra), wild-type, untagged (E. coli) (UniProt P0ACP1)
Assay: BLI

Chain of UniProt P0ACP1 (P0ACP1 whole entry): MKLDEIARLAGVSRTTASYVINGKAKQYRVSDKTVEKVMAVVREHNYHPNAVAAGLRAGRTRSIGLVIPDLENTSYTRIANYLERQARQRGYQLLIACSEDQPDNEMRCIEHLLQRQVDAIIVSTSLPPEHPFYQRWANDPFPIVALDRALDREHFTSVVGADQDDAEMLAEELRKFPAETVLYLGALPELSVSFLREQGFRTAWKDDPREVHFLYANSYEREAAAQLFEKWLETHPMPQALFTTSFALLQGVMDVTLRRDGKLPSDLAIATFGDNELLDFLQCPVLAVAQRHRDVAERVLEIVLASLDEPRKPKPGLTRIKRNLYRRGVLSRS

His-tagged FruK (pET3a) for BLI (from UniProt P0AEW9 1-312) (enzyme)
pKd: 8.68
